Data published in article doi:10.1101/438713.

Biological target: PvdJ-eGFP (Pseudomonas aeruginosa PAO1)
Assay: FRET or BRET

B1: PvdA-mCherry (enzyme)
chain: MTQATATAVVHDLIGVGFGPSNIALAIALQERAQAQGALEVLFLDKQGDYRWHGNTLVSQSELQISFLKDLVSLRNPTSPYSFVNYLHKHDRLVDFINLGTFYPCRMEFNDYLRWVASHFQEQSRYGEEVLRIEPMLSAGQVEALRVISRNADGEELVRTTRALVVSPGGTPRIPQVFRALKGDGRVFHHSQYLEHMAKQPCSSGKPMKIAIIGGGQSAAEAFIDLNDSYPSVQADMILRASALKPADDSPFVNEVFAPKFTDLIYSREHAERERLLREYHNTNYSVVDTDLIERIYGVFYRQKVSGIPRHAFRCMTTVERATATAQGIELALRDAGSGELSVETYDAVILATGYERQLHRQLLEPLAEYLGDHEIGRDYRLQTDERCKVAIYAQGFSQASHGLSDTLLSVLPVRAEEISGSLYQHLKPGTAARALHEHALAS
  shortening of the donor fluorescence lifetime against PvdJ-eGFP alone: 10 to 15%
